The results in this text go back to PMC9909445 (Nature nanotechnology, 2022).

Assay [1] deals with T1, murine neutrophil elastase (mNE) (mouse, UniProt Q3UP87 27-265).
T1 sequence (looked up): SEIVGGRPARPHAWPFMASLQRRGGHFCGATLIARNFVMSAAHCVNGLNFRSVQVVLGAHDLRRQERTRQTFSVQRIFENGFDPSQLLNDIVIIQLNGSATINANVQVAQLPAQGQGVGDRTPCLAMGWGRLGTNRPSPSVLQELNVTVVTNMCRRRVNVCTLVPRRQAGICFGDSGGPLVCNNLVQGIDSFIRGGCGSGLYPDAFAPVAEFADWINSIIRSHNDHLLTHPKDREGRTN
The experiment in a line: SPR. On the technique in general: SPR reads the build-up and loss of mass on a sensor chip optically.

Assay [2] concerns the target T2, human neutrophil elastase (hNE) (human, UniProt P08246 30-267).
T2 sequence (looked up): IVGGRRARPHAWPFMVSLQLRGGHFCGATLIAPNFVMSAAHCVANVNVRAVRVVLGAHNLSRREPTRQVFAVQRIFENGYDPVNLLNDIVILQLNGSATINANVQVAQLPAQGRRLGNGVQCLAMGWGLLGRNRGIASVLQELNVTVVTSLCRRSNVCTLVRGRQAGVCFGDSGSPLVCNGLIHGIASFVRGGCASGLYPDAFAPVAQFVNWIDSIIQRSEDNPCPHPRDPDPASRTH
The experiment in a line: MST.

For orientation: Kd means the concentration at which binding is half-saturated. Low readings indicate tighter binding, high ones weaker binding. For orientation: koff means the first-order rate constant of dissociation. A low value points to slow dissociation. A word on the kon: it is the rate constant with which the complex forms. Read a low kon as slower complex formation. In assay [1], CGEAIPMSIPPEVK [NE-binding peptide (NEBP)] returned a dissociation constant (Kd) of 0.0016 µM, an off-rate (koff) of 8.31e-06 s⁻¹ and an on-rate constant (kon) of 5200 M⁻¹ s⁻¹. Further, the Kd in assay [2] worked out at 2.08 ± 1.35 µM.
